Holding throughout (assay): potentiometry
Settings in all cases: 25 °C (± 0.2 °C); 0.1 M (KCl); none (4 mM HCl, 0.1 M KCl); peptide 0.001 M; metal-free peptide, unstructured (random-coil CD spectrum)

Data set [1] deals with Asp129 (UniProt position 129, …).
For data set [2], the target named is His124 (UniProt position 124, …).
The target in data set [3] is Asp129 (UniProt position 129, …). This is another data set of the same source.
Data set [4] addresses His124 (UniProt position 124, …). The source holds these as a separate data set.
In data set [5] the target is Asp129 (UniProt position 129, …). The source holds these as a separate data set.

B1: HSPB1(124-131) peptide L2, Ac-HEERQDEA-NH2 (Homo sapiens; H131A) (peptide)
chain: HEERQDEA
With B1, the pKa (in general, the negative logarithm of the acid dissociation constant) was found to be 3.60 in data set [1] and 7.00 in data set [2].

B2: HSPB1(124-131) peptide L3, Ac-HEARQDEA-NH2 (Homo sapiens; E126A;H131A) (peptide)
chain: HEARQDEA
As to B2, the results for the pKa in data set [3] and in data set [4] were 3.47 and 6.71, respectively.

B3: HSPB1(124-131) peptide L4, Ac-HEARQDEH-NH2 (Homo sapiens; E126A) (peptide)
chain: HEARQDEH
In turn, B3 came in with a pKa in data set [5] of 3.26.

The record behind these values is article PMC12444091.
